Measurements: the RNAGym collection of RNA variant scans (doi:10.7554/elife.80360)

B1: Twister Ribozyme (parent)
chain: AACACUGCCAAUGCCGGUCCCAAGCCCGGAUAAAAGUGGAGGGGGCGG

Variants of: B1
Assay: self-cleavage, relative activity (ratio to wild type); higher = more cleavage; co-transcriptional

Row | Variant | self-cleavage
1 | A34C A35U | 0.811
2 | A34C A40G | 0.145
3 | A34C C46G | 0.154
4 | A34C C46U | 0.251
5 | A34C G38A | 0.232
6 | A34C G38C | 0.157
7 | A34C G39U | 0.11
8 | A34C G41C | 0.111
9 | A34C G41U | 0.112
10 | A34C G42A | 0.143
11 | A34C G42C | 0.184
12 | A34C G42U | 0.113
13 | A34C G43A | 0.13
14 | A34C G43C | 0.103
15 | A34C G43U | 0.14
16 | A34C G45A | 0.144
17 | A34C G45C | 0.0937
18 | A34C G45U | 0.167
19 | A34C G47A | 0.122
20 | A34C G47U | 0.107
21 | A34C G48C | 0.2
22 | A34C G48U | 0.21
23 | A34C U37A | 0.169
24 | A34C U37C | 0.116

Row | Variant | self-cleavage
25 | A34C U37G | 0.249
26 | A34G | 0.874
27 | A34G A35G | 0.526
28 | A34G A35U | 0.92
29 | A34G A40G | 0.111
30 | A34G A40U | 0.122
31 | A34G C46A | 0.736
32 | A34G C46U | 0.834
33 | A34G G36A | 0.164
34 | A34G G36U | 0.105
35 | A34G G38U | 0.677
36 | A34G G39C | 0.109
37 | A34G G39U | 0.102
38 | A34G G41A | 0.141
39 | A34G G41U | 0.131
40 | A34G G42A | 0.133
41 | A34G G42C | 0.185
42 | A34G G44C | 0.783
43 | A34G G44U | 0.722
44 | A34G G45C | 0.274
45 | A34G G47A | 0.477
46 | A34G G48U | 0.876
47 | A34G U37A | 0.444
48 | A34U | 0.915

Row | Variant | self-cleavage
49 | A34U A35C | 0.892
50 | A34U A35U | 0.841
51 | A34U C46G | 0.839
52 | A34U C46U | 0.84
53 | A34U G36A | 0.157
54 | A34U G38U | 0.506
55 | A34U G39A | 0.199
56 | A34U G39U | 0.139
57 | A34U G41A | 0.163
58 | A34U G41C | 0.176
59 | A34U G41U | 0.185
60 | A34U G43A | 0.209
61 | A34U G44A | 0.893
62 | A34U G44C | 0.766
63 | A34U G45U | 0.59
64 | A34U G47A | 0.601
65 | A34U G47C | 0.247
66 | A34U G47U | 0.502
67 | A34U G48C | 0.855
68 | A34U U37G | 0.372
69 | A35C A40C | 0.154
70 | A35C C46A | 0.98
71 | A35C C46G | 0.828
72 | A35C C46U | 0.879

Row | Variant | self-cleavage
73 | A35C G36A | 0.491
74 | A35C G36U | 0.477
75 | A35C G38A | 0.9
76 | A35C G38U | 0.881
77 | A35C G39A | 0.221
78 | A35C G39C | 0.153
79 | A35C G41A | 0.611
80 | A35C G42A | 0.32
81 | A35C G42U | 0.415
82 | A35C G43U | 0.456
83 | A35C G44C | 0.943
84 | A35C G45A | 0.807
85 | A35C G45U | 0.855
86 | A35C G47A | 0.832
87 | A35C G47U | 0.932
88 | A35C G48A | 0.917
89 | A35C G48C | 1.08
90 | A35C G48U | 0.978
91 | A35C U37G | 0.703
92 | A35G A40G | 0.118
93 | A35G A40U | 0.107
94 | A35G C46A | 0.747
95 | A35G G36A | 0.718
96 | A35G G36C | 0.491

Row | Variant | self-cleavage
97 | A35G G36U | 0.765
98 | A35G G38A | 0.199
99 | A35G G38U | 0.667
100 | A35G G39A | 0.374
101 | A35G G39U | 0.18
102 | A35G G41A | 0.246
103 | A35G G42A | 0.115
104 | A35G G42C | 0.141
105 | A35G G42U | 0.133
106 | A35G G43C | 0.16
107 | A35G G43U | 0.13
108 | A35G G44U | 0.831
109 | A35G G45C | 0.373
110 | A35G G47C | 0.562
111 | A35G G47U | 0.81
112 | A35G G48A | 0.913
113 | A35G G48C | 1.04
114 | A35G G48U | 0.882
115 | A35G U37C | 0.056
116 | A35G U37G | 0.585
117 | A35U A40C | 0.195
118 | A35U G36A | 0.593
119 | A35U G36C | 0.592
120 | A35U G38C | 0.973

Row | Variant | self-cleavage
121 | A35U G39A | 0.316
122 | A35U G39U | 0.134
123 | A35U G41A | 0.678
124 | A35U G42U | 0.374
125 | A35U G44C | 0.974
126 | A35U G44U | 0.92
127 | A35U G45A | 1.02
128 | A35U G47A | 0.899
129 | A35U G47U | 0.893
130 | A35U G48A | 1.02
131 | A35U U37A | 0.834
132 | G36A | 0.843
133 | G36A A40C | 0.115
134 | G36A C46A | 0.582
135 | G36A G38C | 0.327
136 | G36A G39A | 0.195
137 | G36A G39C | 0.115
138 | G36A G41U | 0.131
139 | G36A G42A | 0.141
140 | G36A G43A | 0.14
141 | G36A G43U | 0.147
142 | G36A G45A | 0.714
143 | G36A G45U | 0.579
144 | G36A G47C | 0.234

Row | Variant | self-cleavage
145 | G36A G48A | 0.639
146 | G36A U37A | 0.166
147 | G36A U37G | 0.32
148 | G36C | 0.691
149 | G36C A40C | 0.15
150 | G36C A40G | 0.0963
151 | G36C C46U | 0.585
152 | G36C G38U | 0.116
153 | G36C G39A | 0.122
154 | G36C G39C | 0.113
155 | G36C G39U | 0.128
156 | G36C G41A | 0.134
157 | G36C G41C | 0.141
158 | G36C G41U | 0.0915
159 | G36C G42U | 0.145
160 | G36C G43C | 0.0794
161 | G36C G44C | 0.402
162 | G36C G44U | 0.512
163 | G36C G45A | 0.37
164 | G36C G47C | 0.171
165 | G36C G47U | 0.376
166 | G36C G48A | 0.422
167 | G36C G48C | 0.657
